Where “and” joins values, the source holds several entries; their conditions need not be identical. Identical values can stand only once.
Conditions: Capra hircus, pH 7, Thermal, CD, sodium cacodylate 50 mM, NaCl 50 mM, reversible: Yes, whole UniProt chain shown

B1: Alpha-lactalbumin wild type, P00712 (protein)
chain: MMSFVSLLLVGILFHATQAEQLTKCEVFQKLKDLKDYGGVSLPEWVCTAFHTSGYDTQAIVQNNDSTEYGLFQINNKIWCKDDQNPHSRNICNISCDKFLDDDLTDDIVCAKKILDKVGINYWLAHKALCSEKLDQWLCEKL
heat capacity change of unfolding (59 °C): 1.8 kcal/mol/K | unfolding free energy (59 °C): 0 kcal/mol | heat capacity change of unfolding: 1.8 kcal/mol/K | unfolding enthalpy (van 't Hoff): 85.1 kcal/mol and 69.5 kcal/mol

From FireProtDB (doi:10.1016/j.jmb.2005.09.061)
